Reference: patent US20130136748A1 (Ablynx, published 2013)
Where “and” joins values, the source holds several entries; their conditions need not be identical. Identical values can stand only once.

Key:
[1] = target: T1, Chimeric chicken Her3-human domain 1 (AA1-206 human, AA207-642 chicken) (chicken/human chimera); assay: FACS, HEK293 with chimeric HER3
T1 construct: Transmembrane and extracellular regions, on HEK293 cells
T1 chain: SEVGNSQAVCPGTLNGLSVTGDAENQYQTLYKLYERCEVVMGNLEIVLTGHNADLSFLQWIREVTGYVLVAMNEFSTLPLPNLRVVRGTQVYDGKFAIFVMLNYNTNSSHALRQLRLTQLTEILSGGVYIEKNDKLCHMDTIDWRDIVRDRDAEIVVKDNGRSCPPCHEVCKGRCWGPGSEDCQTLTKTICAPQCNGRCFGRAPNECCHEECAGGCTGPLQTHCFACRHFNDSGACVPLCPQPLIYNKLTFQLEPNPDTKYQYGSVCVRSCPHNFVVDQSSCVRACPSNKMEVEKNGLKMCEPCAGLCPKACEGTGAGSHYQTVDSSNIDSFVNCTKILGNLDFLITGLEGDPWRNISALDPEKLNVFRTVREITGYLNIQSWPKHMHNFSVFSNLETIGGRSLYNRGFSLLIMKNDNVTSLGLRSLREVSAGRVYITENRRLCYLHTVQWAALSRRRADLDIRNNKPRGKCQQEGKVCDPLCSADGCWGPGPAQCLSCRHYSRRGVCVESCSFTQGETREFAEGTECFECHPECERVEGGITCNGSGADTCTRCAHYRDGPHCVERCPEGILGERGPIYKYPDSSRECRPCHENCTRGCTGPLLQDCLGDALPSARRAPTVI

[2] = target: T2, human HER3-Fc (R&D Systems, 348-RB) (human, UniProt P21860 20-643); assay: HRG competition alphascreen
T2 construct: Bought; also called hHER3-Fc; Fc-HER3; Fc part of the bought chimera not given, not described

[3] = target: T2, human HER3-Fc (R&D Systems, 348-RB); assay: HRG competition alphascreen; remark: listed apart in the source
hHER3 full length [4] = target: T3, hHER3 full length (human, UniProt P21860 20-1342); assay: FACS competition with HRG1-β1-EGF, CHO-HER3
T3 construct: On transfected CHO, CHO HER2/HER3, CHO EGFR/HER3 or CHO Flp-In cells; endogenous HER3 of MCF-7 and MDA-MB468 cells in the signalling assays; also called human HER3

[5] = target: T2, human HER3-Fc (R&D Systems, 348-RB); assay: SPR, HER3-Fc captured by anti-Fc
hHER3 full length [6] = target: T3, hHER3 full length; assay: cell-based or functional assay
[7] = target: T2, human HER3-Fc (R&D Systems, 348-RB); assay: HRG competition alphascreen; remark: listed apart in the source
[8] = target: T4, Chimeric chicken Her3-human domain 2 (AA207-328 human) (chicken/human chimera); assay: FACS, HEK293 with chimeric HER3
T4 construct: Transmembrane and extracellular regions, on HEK293 cells
T4 chain: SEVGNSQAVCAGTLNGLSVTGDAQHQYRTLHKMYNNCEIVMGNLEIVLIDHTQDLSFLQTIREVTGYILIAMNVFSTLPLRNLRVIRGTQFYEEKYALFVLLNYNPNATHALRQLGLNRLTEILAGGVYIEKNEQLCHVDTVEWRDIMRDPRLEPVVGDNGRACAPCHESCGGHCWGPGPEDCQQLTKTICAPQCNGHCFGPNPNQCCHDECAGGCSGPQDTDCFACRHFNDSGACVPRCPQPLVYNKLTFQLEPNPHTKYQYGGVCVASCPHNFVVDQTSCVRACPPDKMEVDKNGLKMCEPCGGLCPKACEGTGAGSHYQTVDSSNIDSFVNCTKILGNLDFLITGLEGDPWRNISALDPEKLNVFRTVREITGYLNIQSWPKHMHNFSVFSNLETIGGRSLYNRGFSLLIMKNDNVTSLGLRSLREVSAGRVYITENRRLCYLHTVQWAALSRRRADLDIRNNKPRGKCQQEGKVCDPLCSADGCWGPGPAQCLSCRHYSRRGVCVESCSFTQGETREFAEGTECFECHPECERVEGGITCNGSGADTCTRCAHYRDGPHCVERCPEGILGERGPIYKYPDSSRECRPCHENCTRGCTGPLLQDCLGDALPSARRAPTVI

hHER3 full length [9] = target: T3, hHER3 full length; assay: cell-based or functional assay; remark: listed apart in the source
[10] = target: T5, hHER3 ECD (human HER3 extracellular domain) (human, UniProt P21860 20-643); assay: SPR off rate
T5 construct: also called recombinant HER3-ECD

[11] = target: T2, human HER3-Fc (R&D Systems, 348-RB); assay: alphascreen, competitor biotinylated 18G11
[12] = target: T5, hHER3 ECD (human HER3 extracellular …); assay: SPR off rate on HER3-ECD, periplasmic extract
[13] = target: T2, human HER3-Fc (R&D Systems, 348-RB); assay: 18G11 competition alphascreen
[14] = target: T5, hHER3 ECD (human HER3 extracellular …); assay: off rate screening on recombinant HER3-ECD
[15] = target: T2, human HER3-Fc (R&D Systems, 348-RB); assay: SPR, HER3-Fc captured; heterogenous curve, main interaction (89%)

Binder | binding result [1] | IC50 [2] | % inhibition [3] | IC50 [3] | IC50 (hHER3 full length [4]) | Kd [5] | kon [5] | IC50 pHER3, HRG1-β1 stimulated MCF7 (hHER3 full length [6]) | IC50 [7] | binding result [8] | IC50 pHER3 blocking, HRG stimulated MCF7 (hHER3 full length [9]) | koff [10] | IC50 [11] | koff [12] | IC50 [13] | koff [14] | Kd [15] | kon [15]
04C07 (VHH, also called HER3MS04C07; HER3MS004C07) VHH: EVQLVESGGGLVQAGGSLRLSCAASGFTFSSYPMSWVRQAPGKGPAWVSTVSPGGITTSYADSVKGRFTISRDNAKNTLYLQMNSLKPEDTAVYYCLRDLNNRGQGTQVTVSS | binds | 0.18 nM | 86.7% | 0.264 nM | 4.26 nM | 0.22 nM | 1.2e+06 M⁻¹ s⁻¹ | 6.25e-09 M | 0.27 nM and 0.69 nM |  |  |  |  |  |  |  |  | 
18G11 (VHH, c-myc, His6-tagged form as expressed; also called HER3MS18G11; HER3MS018G11) VHH: EVQLVESGGGLVQPGGSLRLSCAASGTLFKINAMGWYRQAPGKRRELVALITSSDTTDYAESVEGRFTISRDNTWNAVYLQMNSLKPEDTAVYYCHSDHYSMGVPEKRVIMYGQGTQVTVSS |  |  |  |  |  | 10 nM | 26000 M⁻¹ s⁻¹ |  |  | binds | 2.91e-08 M | 0.00043 s⁻¹ and 0.00047 s⁻¹ | 3.2 nM | 0.00062 s⁻¹ and 0.00077 s⁻¹ | 4.4 nM | 0.00061 s⁻¹ |  | 
17C08 (VHH, also called 17C8) VHH: EVQLVESGGGLMQAGDSLRLSCAASGRAFSSYALGWFRRAPGKERECVAATDRLGDNTYFPDSVKGRFTISRDNAKNTLYLQMNNLKPEDTAVYYCAAGAVRYGVSTSPMNYNYWGQGTQVTVSS | binds |  |  |  |  |  |  |  |  | binds |  |  |  |  |  |  | 48 nM | 8400 M⁻¹ s⁻¹
